The source of these data is paper PMC2396407.

In data set [1] the target is T1, p53 (UniProt P04637 1-393). Nature of the data set: competition.
Data set [2] addresses T2, TAp63γ (UniProt Q9H3D4-5 40-487).
T2 sequence: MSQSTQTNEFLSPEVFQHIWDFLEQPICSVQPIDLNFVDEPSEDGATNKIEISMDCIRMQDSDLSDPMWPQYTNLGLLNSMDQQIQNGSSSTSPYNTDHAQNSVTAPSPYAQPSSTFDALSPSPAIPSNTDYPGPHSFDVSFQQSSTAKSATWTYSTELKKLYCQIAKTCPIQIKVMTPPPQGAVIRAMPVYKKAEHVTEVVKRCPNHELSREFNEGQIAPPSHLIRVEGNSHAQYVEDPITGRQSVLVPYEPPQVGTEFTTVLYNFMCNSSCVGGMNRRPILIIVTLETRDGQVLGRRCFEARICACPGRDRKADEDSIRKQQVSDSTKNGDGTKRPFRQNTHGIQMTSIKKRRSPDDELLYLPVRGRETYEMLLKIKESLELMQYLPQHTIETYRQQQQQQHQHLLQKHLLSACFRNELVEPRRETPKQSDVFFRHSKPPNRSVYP
Briefly: competition.

Data set [3] has as its target T1, p53. Nature of the data set: EMSA. Background: In EMSA bound probe runs differently from free probe, usually more slowly.
Data set [4] has as its target T2, TAp63γ. Nature of the data set: EMSA.
Data set [5] addresses T2, TAp63γ. Nature of the data set: EMSA, supershift.
Data set [6] concerns the target T1, p53. Briefly: EMSA, supershift.
Data set [7] concerns the target T1, p53. Nature of the data set: competition. The source holds these as a separate data set.
Data set [8] has as its target T2, TAp63γ. Nature of the data set: competition. The source holds these as a separate data set.

T1 sequence (P04637 whole entry): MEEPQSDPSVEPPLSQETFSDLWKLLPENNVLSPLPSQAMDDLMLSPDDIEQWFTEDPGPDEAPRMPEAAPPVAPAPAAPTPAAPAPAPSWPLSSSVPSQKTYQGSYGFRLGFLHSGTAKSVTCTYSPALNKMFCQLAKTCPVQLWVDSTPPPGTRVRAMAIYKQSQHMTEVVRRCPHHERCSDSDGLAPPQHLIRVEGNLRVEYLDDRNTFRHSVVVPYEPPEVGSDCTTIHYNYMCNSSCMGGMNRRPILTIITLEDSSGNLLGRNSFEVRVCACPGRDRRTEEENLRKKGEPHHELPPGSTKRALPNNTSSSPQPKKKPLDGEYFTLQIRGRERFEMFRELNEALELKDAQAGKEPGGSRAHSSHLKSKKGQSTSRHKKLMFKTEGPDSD

B1: S100A2 site 2 mut-1 (dsDNA)
DNA 1: GGGTGGGATTGGATTGAGGTGGATTTGGTTTCCTT
DNA 2: AAGGAAACCAAATCCACCTCAATCCAATCCCACCC
For the molecule B1, the binding result with p53 [1] and in the data set with TAp63γ [2] was “no binding” each time.

B2: mdm2 p53 site (dsDNA)
DNA 1: GGGCGGCCGCTGGTCAAGTTGGGACACGTCCGG
DNA 2: CCGGACGTGTCCCAACTTGACCAGCGGCCGCCC
On to B2, for which the binding result in the data set with p53 [3] and with TAp63γ [4] was “binds” each time.

B3: p21 (p21WAF1/CIP1 p53 site) (dsDNA)
DNA 1: GGCCATCAGGAACATGTCCCAACATGTTGAGCTCT
DNA 2: AGAGCTCAACATGTTGGGACATGTTCCTGATGGCC
Consider B3, for which the binding result with TAp63γ [5] and with p53 [6] was “binds” in each case.

B4: S100A2 site 2 mut-2 (dsDNA)
DNA 1: GGGTGGGATCATGTTGAGGCATGTTTGGTTTCCTT
DNA 2: AAGGAAACCAAACATGCCTCAACATGATCCCACCC
As to B4, the binding result with p53 [7] and with TAp63γ [8] was “binds” each time.
